Experiment [1] addresses T1, human BAFF-R expressed on cells (human, UniProt Q96RJ3 1-184).
T1 construct: Cell surface BAFF-R, endogenous on B cell lines and primary B cells or overexpressed on isogenic CHO cells; also called hBAFF-R; hBAFF-R-CHO
The experiment in a line: flow cytometry, Raji cells. Background: A flow cytometer gives signals particle by particle.

In experiment [2] the target is T1, human BAFF-R expressed on cells. Nature of the experiment: flow cytometry, Rs4;11 cells.
Experiment [3] shares this target. The experiment in a line: flow cytometry, human BAFF-R+ isogenic CHO. The source says: Isogenic cell lines overexpressing human and cynomolgus BAFF-R were developed from CHO cells.
For experiment [4] the target is unchanged. Nature of the experiment: flow cytometry, human BAFF-R CHO cells. An excerpt: Isogenic cell lines overexpressing human and cynomolgus BAFF-R on the backbone of CHO cell line were designed.
Experiment [5] addresses T2, human NKG2D expressed on cells (human, UniProt P26718 1-216).
T2 construct: whole, on cells; also called NKG2D on KHYG-1 cells; NKG2D-positive NK cells and CD8+ T cells
T2 sequence (looked up): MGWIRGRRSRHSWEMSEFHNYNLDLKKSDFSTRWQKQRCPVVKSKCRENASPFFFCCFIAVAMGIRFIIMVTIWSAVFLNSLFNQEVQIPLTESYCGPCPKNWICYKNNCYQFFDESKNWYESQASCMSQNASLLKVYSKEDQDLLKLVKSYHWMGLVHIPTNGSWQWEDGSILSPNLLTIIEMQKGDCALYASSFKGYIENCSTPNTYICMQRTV
Nature of the experiment: flow cytometry on KHYG-1 cells (no CD16), MFI.

The target in experiment [6] is T1, human BAFF-R expressed on cells. Nature of the experiment: flow cytometry, CHO-hBAFF-R cells.
Experiment [7] has the same target. The experiment in a line: flow cytometry, BJAB cells.
Experiment [8] has the same target. The experiment in a line: flow cytometry, SUDHL-6 cells.
Experiment [9] has the same target. The experiment in a line: flow cytometry, Jeko-1 cells.
For experiment [10] the target is unchanged. Nature of the experiment: flow cytometry, RL cells.
For experiment [11] the target is unchanged. Nature of the experiment: cell-based or functional assay.
Experiment [12] has the same target. Nature of the experiment: flow cytometry, BAFF-R CHO cells; isogenic CHO cells; human and cynomolgus not told apart.
Experiment [13] shares this target. Nature of the experiment: blocking of BAFF-biotin on hBAFF-R CHO cells, flow cytometry. The procedure: Briefly, CHO cells expressing human BAFF-R were harvested, washed in cold FACS buffer, and seeded at a density of 100,000 cells per well. Test articles were diluted in FACS buffer, and 50 μL of diluted multispecific binding protein or mAb was added to cells, incubated on ice for 60 minutes, then washed with FACS buffer. […] Cells were incubated with 100 μL of 1:200 streptavidin-PE diluted in FACS buffer and incubated on ice for 30 minutes then washed with FACS buffer. Cells were then incubated in 100 μL of 1:1,000 dilution of live/dead dye in PBS for 15 minutes, then washed with FACS buffer, and fixed. After incubation, cells were washed with FACS buffer and resuspended in FACS buffer for analysis with flow cytometry. Median fluorescent intensity (MFI) of each sample and the secondary-only control was calculated. […] Data were fit to a four-parameter non-linear regression curve using GraphPad Prism.

Experiment [14] shares this target. Nature of the experiment: flow cytometry, human BAFF-R CHO cells. This is another data set of the same source.
For experiment [15], the target named is T3, cynomolgus monkey BAFF-R expressed on cells (cynomolgus monkey).
T3 construct: whole, on cells; also called cBAFF-R; cynoBAFF-R
The experiment in a line: flow cytometry, cyno BAFF-R CHO cells.

Experiment [16] has as its target T3, cynomolgus monkey BAFF-R expressed on …. Nature of the experiment: flow cytometry, cyno BAFF-R CHO cells. This is another data set of the same source.
In experiment [17] the target is T1, human BAFF-R expressed on cells. The experiment in a line: flow cytometry, human BAFF-R CHO cells. The source holds these as a separate data set.
The target is the same in experiment [18]. Nature of the experiment: blocking of BAFF-biotin on hBAFF-R CHO cells.
Experiment [19] shares this target. Nature of the experiment: flow cytometry, BAFF-R-CHO cells.

Read-outs that look alike come from different tables or passages of the source. Where only a bound is given, the exact number is not on record here.

B1: Parental mAb (AB1753) (antibody, V domains shown)
VH: EVQLVQSGGGVVQPGRSLRLSCAASGFTFSSYGMHWVRQAPGKGLEWVAVIWYDASNKYYGDSVKGRFTISRDNSKNTLYLQMNSLRDEDTAVYYCARRFTHLRGQYIEDYGLDVWGQGTTVTVSS
VL: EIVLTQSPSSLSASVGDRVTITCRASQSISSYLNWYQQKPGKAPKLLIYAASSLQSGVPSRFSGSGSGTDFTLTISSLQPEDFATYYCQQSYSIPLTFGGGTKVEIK
notes: also called parental BAFF-R specific antibody
As for B1, the EC50 in experiment [1] was 0.1 nM; in experiment [2] it was 0.06 nM; in experiment [3], 0.39 nM; in [4] it was 0.4 nM; in [6], 0.39 nM; in experiment [7] it was 0.18 nM. For the same molecule, the EC50 in [8] was 0.19 nM; in [9] it was 0.07 nM; in experiment [10] it was 0.14 nM. For the same molecule, the “Max FOB” value was 3 fold over background in experiment [2]; 123 fold over background in experiment [3]; 57 fold over background in experiment [4]; 123 fold over background in experiment [6]; 12 fold over background in experiment [7]; 13 fold over background in [8]. In addition, the “Max FOB” value stood at 5 fold over background in experiment [9] and 6 fold over background in experiment [10]. Moreover, the binding result in [5] is reported as “no binding (tested: about 700 nM)”.

B2: AB0369 (bispecific antibody, V domains shown)
VH: EVQLVQSGGGVVQPGRSLRLSCAASGFTFSSYGMHWVRQAPGKCLEWVAVIWYDGSNKYYGDSVKGRFTISRDNSKNTLYLQMNSLRDEDTAVYYCARRFTMLRGLIIEDYGMDVWGQGTTVTVSS
VL: not shown
notes: also called AB0369-001
Consider B2, for which, in experiment [11], the “KHYG-A-CD16Av mediated Cytolysis of Ramos cells EC50” value came out at 0.64 nM. The EC50 in experiment [12] is approximately 10 nM; in experiment [14], 6.8 nM; in experiment [15], more than 15 nM; in experiment [16], 7.11 nM; in [17], more than 10 nM; in [19] it was more than 10 nM. In addition, the IC50 was 488 nM in experiment [13] and more than 1000 nM in experiment [18].

Usually EC50 stands for the concentration at which the effect is half-maximal. The term IC50 denotes the concentration that inhibits the measured activity by half.
